Assays:
Type in all cases: biochemical, Quillaja saponaria
[1] = Experiment 6-1: screening of rhamnosidases for derhamnosylation of saponins in treated bark extract (2%), desglucosyl-QS-17 2134 to QS-21 1988 (PAR %); details: TBE 2%, pH 7.5, 30 degC, 18 h; TIC peak area ratio percent, LCMS/MS; negative controls 2.719, 2.158
[2] = Experiment 6-1: specificity of rhamnosidases towards other rhamnose residues (C3 saccharide rhamnose, C28 saccharide rhamnose); details: TBE 2%, pH 7.5, 30 degC, 18 h; LCMS/MS; negative controls 0.18, 0.17
[3] = Experiment 6-1: screening of rhamnosidases for derhamnosylation of saponins in treated bark extract (2%), QS-17 2296 to QS-18 2150 (PAR %); details: TBE 2%, pH 7.5, 30 degC, 18 h; TIC peak area ratio percent of rhamnosylated starting saponin to derhamnosylated product, LCMS/MS; negative controls 4.876, 5.225
[4] = Experiment 6-1: screening of rhamnosidases for derhamnosylation of saponins in treated bark extract (2%), QS-17 2310 to QS-18 2164 (PAR %); details: TBE 2%, pH 7.5, 30 degC, 18 h; TIC peak area ratio percent, LCMS/MS; negative controls 3.061, 2.429

| Molecule | Peak75 (PAR %) [1] | ratio PP/QS-21 [2] | QS-17 (PAR %) [3] | Peak57 (PAR %) [4] |
| --- | --- | --- | --- | --- |
| 1013 (protein, listed as Chloroflexus aurantiacus) MSYEQLSTSQSQVSRLIVRVEHYQSTLGIGNPCPRLSWIIETNATNWLQTAYEIECYTKDGRVRGRTGWIHSPESVLVPWPFEPLTSREQVLVRVRVRDNKGDISPWSEMLPIEAGLLKVGDWSARFITPDWDDDILKPQPCPMLRHEFRVDNDVIQARLYITSLGVYEAQINGVVVGDQVLAPGWTVYDRRLRYQTFDVTMHLREGINAIGVILGDGWFRGRLGFGGGRRNIYGNRLAVLAQLEITYRDGSTQQVCTDQTWRSTTGPILASDIYDGEIYDARLELPNWSKPGFADHQWSGVRLLEWDFSTLVAPISPPIRRIEMVLPVAIFSSPSGRTIVDFGQNLVGRVRLTVSGPPGQMITVRHAEVLEGGELSTRPLRFAAATDRYILRGDGTEVWEPRFTFHGFRYAEIDGWPGELRTTDIVAVVIHSDMERIGWFTCSDQLLNRFHENVVWSMRGNFLDVPTDCPQRDERLGWTGDIQVFAPTAVFLYDVAGLLQSWLIDLAIEQEKLGGAVPHVVPNVLGPSAAGAAAWGDAATVVPWVLFQRYGDKRVLETQYKSMRSWVDYIATKAGHTYLWDRGFQFGDWLDPTAPPDKPGQARTDKAIVASAYFIFSATLVAKAAHVLGYDADADFYADLAHKARFAFAKEYITPAGRLMCDTETAYALALVFDLFPTDTQRRYAGERLAALVRDSGYHIRTGFVGTPLICDALCSVGHCRVAYRLLMQRECPSWLYPVTMGATTIWERWDSMLPDGSINPGEMTSFNHYALGAVADWMHRTIGGLIPVEPGYRRIEFRPQPGGEIVYARVSHRTPYGLAECFWRIEEGVFYLRVVVPPNTTAQVFLPGRDDQPLDVGSGIWQWSIPCQDTATRGSYTVDDLVDEIIDDEVAREAVNQVLSQVDAWRLFGNLLLNERSASLREAIQALPNSEIVIERLNALLTRIPKKDGI | 2.388% | 0.17 | 5.272% | 2.576% |
| 1051 (protein, Subdoligranulum variabile) MDGGPLFLSWQCTGGLRQTAYEIHLTADDALVWESGKVATQSMHADAPAVEGARVRGSWKVRLWDENNCPGPWSGARFETGLSTGEWQGLWVAPETAPLDIPGDDAINAFARPNWERKQAEKEAAGKGAAEPYQPHRPASYLRKTFTAPSGRGRLYITAKGLYVAWLNGVRVGDMVLAPGSFTADKHLGAQTYDVTALLREGENELLIALGDGWYRSTSGVDGDRNLFGDTLGVLFQLEVDGKVVCVSDDTMQATQQGPIRQNDLQQGEVYDARLEGLLSGWHEVQTYRDALPVTGMNTVPIREREAFPGRLFTAPNGETVLDFGQNIAGYVEMTLTAHAGQKVLLTCGETLDENGNFTQENFQDRSRHNEGGTAQMLELICKEGVNHWKPSFTIMGFQYAKVETDADLTGAVFTAHAVYSDMAVTGSFTCGNKAVNRLVANSIWSQKGNFCDIPTDCPTRERAGWTGDMGVFIETGLTLMDCYPVVAKWLKECRLNQYPDGRMANIAPPNSRPGYMTPMLCMSAGWGDAAILVPYALYKRTGDRRILADNYEMMQRWYAFLLGRAQQTTEEQQSGEYAKYTVLNGLDYGEWCEPGVTPMQAMANPRKSVGTAYLAYSGRLLAEIAAVLGRQEEADAYRATADKAVKAYRAAFTEDGVIHSDRQCEYVRAIAFALLGEEESRAAATTLNQMVVDNGCHLNTGFLSTPFLCGVLAQYGYIDTAYRLLLQPEAPGWLYEVNKGANTVWETWTGIDAEGKPHESLNHYSYGAICGWLFGGVCGIHFTDGQLTIAPTPHKALGYAKAVYDSPAGRIESGWRYEGDTVTYEFTIPTNITAHIHLPDGRTRMLSAGTHRL | 2.426% | 0.16 | 5.289% | 2.918% |
| 1014 (protein, listed as Thermoclostridium stercorarium) MMRVYNLKTNRIKNPMGFVINKPKLSWLVESDTAKHQVAAQVEISADINFENIIFDSGKRTDIDSISYSPQVELKPRTRYYWRVRVWGDDGSEAVSEAAWFETSKMDEPWKAKWITPDFDPSVHPVVFTDFSIERDVADARAYVCGLGLYEMSVNGEKTGDEYLAPGLVAYDKWIPYQTYDITSQLKKGINTAEFLLGNGWYKGRYGLNRKQPFRYGNEFALICEIHITYQDGTADVIYTDTSWKARKSKVIDSGIYDGEIYDDTFCDDAVYPVRIADLDVNKLEPRRSPGIKIKERIKPAEIIRTPEGETVIDMGQNMVGWLEFTNRAPKGAEIMLQFGEVLQDGNFYRDNLRTAKCEFHYISDGKVKKVRPHFTFYGFRYVKLTKWEGEVNPEDFTGLVLYSDLERTGNITTDNSLVNRLFLNALWSQKGNFLDVPTDCPQRDERMGWTGDAQVFSGAAAFNMDVFAFFGKYLYDLKQEQKARGGNVPVVVPAHDVKQNGACGWGDAAVIIPWNMYLHYGDVSILEQQYKSMKGWVDYIKSKDDAAGGRRLWLNDFHYGDCVSLDVEDPFNRFGGTEHAYLASAFYSYSAGIVSKAAKILNKKEDAEYYRKLSEEVKNAIRKEYFTPTGRLAVNTQTAYVIALYMDLVPDEWKERVAFELRKKLKETKYHLRTGFLGTPYLCRVLSEYGSNDIAYRLLTNTDYPGWLYPVTMGATTIWERWNSMLPDGKVSDTGMNSFNHYSYGSIVEWIYRNAAGIQPVEDAPGFRRFRLKPQPHYLLKSLDAEFLSPAEKIISRWNINENGSVSFYFRIPFNTTAELVLPDTEVQDWKEFMSLNVVNILILTCLKDLTRKCTEQILQCGKFMKMRGQKKL | 2.741% | 0.18 | 5.309% | 3.359% |
| 1030 (protein, listed as Lactobacillus crispatus) MKLVRIEVNHMETPIGFNLDNHLHLVGFLDGPVTSKLQRKLIIKAHDKEIVTFDWENADNLIFDFPINLTARTRYEVEMSVKNDREMSTATTYFETGQIDETLKGKWIGTEHKDLHSIILYKKFTTKDVKKARLYISGLGLFEAYLDGNKIGNEFLTPGFTDYNYDLQIESYDLTTELLKSGEHTLAIMLGDGWYRGKLGLKVHGGQPNNYGDQLMAIADLRINDDQQIIVTDKSWQVTTSPITHSGIYYGEDLDDNRQLNELANAIELTSPTKHLVDRQSLPIQRHEQFSVKEIIKTPSGATVLDFGQNMAGWLEFKNTIPKGEKVSIEFGEIMLDGEFYRDNLRSARAQFTYVSDGKEKWVRPHFTYFGFRYVKLNDFEGEIDPNNFRAVALYSNMIETGEIITNNSDVNRLFENVKWGQKSNFIDIPTDCPQRDERLGWTGDAAIFSKTASYNMDTYQFLKKYAYDIAVEQSKNNGFVPLYVPAVDTKDGGKAVWSDAATIIPWIAYKRTGDLAILRQNIGAMMSWVDWIHDRAVSHGQEYLWLGDDQLGDWLALDTEDIMKLKGKTPDDLIASAYYYYSAKLVSQSAETLNMKHEKQYYGQLAKLIKHAFINHFFTKDGLSIADTQTGLALCLSFKLYPANAKDNLINKLVEKVEVNQNHLNTGFVGTPLLLPALTDNGQQDLALRLFLNTDFPSWLFEVKNGATTIWERWNSVDSEGHIAQNGMNSLNHYSSGAVMEWAYEDLLGLKQNGNDAVFKPMLTAKLNQISGQIALPTGIVKVAWHIKSSKLIHLEMDIPYGSHLKLILPKHEQDIPTIFKSGHYELDVEVINPIVEAFDVHTPLAEYRNQTSLTKKLSELVPFWGFLAMPGNMDHFAKYSLLQLSREMRGIGFKPFTQEDIEKINQLFKEYHFKGAEK | 2.127% | 0.17 | 5.315% | 3.621% |
